These results are taken from patent publication US20250312464A1 (CILOA, published 2025).

In this assay the target is T1, Src-streptavidin-PP polypeptide.
T1 construct: also called Src-strepta-PP; Src-Strepta-PP
The assay is described as follows: co-expression in HEK293T cells; EV loading, Western blot. A general note: A western blot detects proteins with antibodies after separation by electrophoresis.

B1: SBP-eGFP polypeptide (other)
chain: not shown
B1: the binding result is on record as “binds”.
